Tested on: K4 kissing-loop RNA reporter
Test: apparent KD of K4 kissing-loop reporter; higher = weaker reporter binding
Conditions: Eterna round: R107
Protocol: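 RNA-MaP round R107: designed RNA switches with theophylline, tryptophan, arginine or FMN aptamers are transcribed on-chip within common flanks. They are titrated with a labelled K4 kissing-loop RNA reporter in RNA-MaP buffer (100 mM Tris pH 7.5, 80 mM KCl, 4 mM MgCl2), without ligand or with the indicated ligand. Median apparent KD per design.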

[1] = input ligand: theophylline 20 uM
[2] = input ligand: tryptophan 2.4 mM
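Note: bound reporter read as fluorescence of individual clusters on recovered sequencing chips by microscopy, with normalized cluster intensities fitted with a binding model.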

Sequence | apparent KD of K4 kissing-loop reporter (input ligand: FMN 200 uM) | apparent KD of K4 kissing-loop reporter (input ligand: arginine 13.2 mM) | apparent KD of K4 kissing-loop reporter (input ligand: none) | apparent KD of K4 kissing-loop reporter [1] | apparent KD of K4 kissing-loop reporter [2]
GUUAUGGACCUUUUGAUCGUUCGUAGCGAUACCAGACAAUGGGCAGUCCCUUGGCAGCGCUAAUUGAGUGAUGUUCAAACGUGCA [theeternabot_exclusion_KL_Theo_A_46] | 730 nM | 309 nM | 680 nM | 331 nM | 364 nM
GCGCGCGGCGGAGGAUAUAGCAGGUGAUCCAAGAAAGUGAGUGAUGUUUAUGGAGAUGAUGAUAUGUUAGAAGGCCGCCGCGCGC [abcdefghijklmnopqrstu] | 803 nM | 448 nM | 626 nM | 847 nM | 474 nM
UGUACCGAGUCAGGAUAUGGCCGGAAACGGAAUAACCAGUGAUGUUGGAAUAAAUGGCGAAAGCCUCCAGAAGGGACUUGGUACU [FmnBS 18 #SwitchBubble #StaticStem #DoubleMagnetSystem] | 158 nM | 213 nM | 211 nM | 212 nM | 185 nM
UGUCAUUGGUCGGCCGCCACUUUGUAUGGAGUGAUGUUUUGUAGAUUGUGUUGAAAGGUGUGGUGAAGGACCGGGACCGAUGACU [FiskerMod 24 - Jieux - Same State - Tryptophan B] | 1070 nM | 652 nM | 922 nM | 841 nM | 749 nM
AAUAAAAUCACGGCCGCCACUGAUGUUAAUAUUAGCAGUGAUGUUGCUAUGUCGUUUUUCUUUAACAGGACCGGGUGAAUAUUUA [#22 K4 Tryptophan B Exclusion] | 156 nM | 150 nM | 170 nM | 171 nM | 148 nM
AGUGAUGUUCCUCCUCUUGGUCUUGGUGGGCGAGGACCGGUACGGCCGCCACUCGAUGUGGGAGUGAUGUUUCCAUAUGAUGUUU [Tryptophan A] | 568 nM | 580 nM | 621 nM | 675 nM | 401 nM
CCGGCCCGGCCGGAUACCAGUGCGCCGCAGGGAACGGCGGGCCCAGAGUGAUGUUCGGGACACCCUUGGCAGCCGCCUGGGUCGC [#2 Same State - Theophylline B Attempt #27 (HarryS)] | 286 nM | 123 nM | 231 nM | 225 nM | 245 nM
ACUAUCCGUAUAUAUAAGAUAGCUGGAGAUACCAGUUCAAUCUUGAACCCUUGGCAGCUCACCACCAAGUGAUGUUUGGCACGAC [theeternabot_sameState_KL_Theo_A_42] | 326 nM | 241 nM | 326 nM | 292 nM | 273 nM
UUAUAUACGAGUGAUGUUCGUUAUUUAUCAGAGGAUAUGCUUAAAUGCAGAAGGCUGUUUUUCUAUUUGAUAUUAAAUUUUAUAA [JR_Nu3_ExcFMNA_Sub027] | 81.6 nM | 89.3 nM | 69.6 nM | 81.1 nM | 58.1 nM
AGUGGUGUUGUGUUAUGUUUGGGAAGUGAUCGAGGACCGGUACGGCCGCCACUCGAGUGAUGAGUGAGUGAUGUUUGUUUAGGGA [whbob_SS_Tryp_A_m10] | 927 nM | 636 nM | 1530 nM | 646 nM | 658 nM
AAUGUAUACUGAAGGAGCGAGUAGUGGAAACAUAAACUCAAUGCGAGUGAUGUUCGCAGUACUCAGGUAGGUCGCAGUAAUGGUA [Exclusion Arginine B Gf 8] | 522 nM | 311 nM | 537 nM | 468 nM | 406 nM
AAGGUCACUGCUACAGUGAUGUUGUGGGAGCAGGAUAUGCAGAAAUGCAGAAGGGCUCGCUCCAGGUGACCGAAUGAAACAUUCA [whbob_SS_FMNA__2th175] | 1070 nM | 826 nM | 1500 nM | 887 nM | 1000 nM
GCGGGCCAGACGGCCGCCACUCCGGGCAGUGAUGUUGCGAAACUUCUACUAGAGUGAUGUUCUACGAGGACCGGGUCGGAACGCG [Exclusion Tryptophan B Gf 13] | 789 nM | 703 nM | 951 nM | 1000 nM | 578 nM
AAUAAUCUAGGUGAUACCAGCUCAACAUGAGUGAUGUUCGUGAGCUAAUGUAGAGUUGAGAGCCCUUGGCAGCACCUAGAUAAUA [KL-SSTheoB7] | 698 nM | 552 nM | 943 nM | 1140 nM | 626 nM
CAUUGUACACGGUGCGAAGACCCAAUGGAUACCAGCAAUACAUUAUGCCCUUGGCAGCCAAGAGUGAUGUUCGACGGACUAGAUU [theeternabot_sameState_KL_Theo_A_4] | 249 nM | 175 nM | 290 nM | 321 nM | 233 nM
AACUGUCAAGGACAACAUUACUGCAGUGAUACCAGCAUCGAAAGAUGCCCUUGGCAGCACCAACUUGCAGUGAUGUUGCAAGUAA [BrourdMod 5 - Jieux - Exclusion - Theophylline A] | 241 nM | 203 nM | 216 nM | 188 nM | 220 nM
UGUGCUGUGUAGUGUAAUGUUAUGCGGGAUACCAGAGUCUUUUUAUUCCCUUGGCAGCUUGAGUGAUGUUUGAUGCUGUUCUUGU [uujmullin] | 303 nM | 305 nM | 350 nM | 371 nM | 287 nM
CACCCAGUCCUCGAUACCAGACUGGCACGUCAAAAGGUCCAGUGAUGUUGAGCCUAACAAGUCCCUUGGCAGCGACCAGUGUAUU [theeternabot_exclusion_KL_Theo_B_30] | 680 nM | 573 nM | 729 nM | 619 nM | 623 nM
AAAAUAAAUAGCAGUCACGGAGUGAUGUUCCGAGGACCGGUACGGCCGCCACUCGACCAGACAAAGUCUGGAGGCGGAGACUGCA [#SwitchBubble 20 #K4Early] | 166 nM | 176 nM | 193 nM | 187 nM | 162 nM
CUGCAACAUAACUUCUUCGUCCUAGAAGACUAGGAUAUCAGGAAACUGAGAAGGAGUCUCUGCAGUGAUGUUGCAGUUAGGACGA [KL-SSFMN-A7] | 139 nM | 135 nM | 115 nM | 160 nM | 138 nM
GGUUCCUCAGUGAUGUUGAGGUGACCUCGGCAGGAUAUAGGCAUUACUAGAAGGGCCAAAAGAACCCUGUGUAGCGACACAGGGA [Beerma] | 150 nM | 269 nM | 329 nM | 279 nM | 299 nM

Sequence | apparent KD of K4 kissing-loop reporter (input ligand: FMN 200 uM) | apparent KD of K4 kissing-loop reporter (input ligand: arginine 13.2 mM) | apparent KD of K4 kissing-loop reporter (input ligand: none) | apparent KD of K4 kissing-loop reporter [1] | apparent KD of K4 kissing-loop reporter [2]
CUUAUGGACUAAGGAUAUGGGUAUACCGGAAGCGCCGUCACGGUAGUGAUGUUACACGCGACGGGACCAGAAGGUAGAUCGCUCC [theeternabot_exclusion_KL_FMN_B_33] | 73.9 nM | 96.2 nM | 101 nM | 71.3 nM | 85.5 nM
AGGAUCGAAGAUCCAGCAGUCAAGCAAUACCGAGGACCGGUACGGCCGCCACUCGGAGUGAUGUUCCGAAGACUGCAAAAUAAAA [#SwitchBubble 8] | 640 nM | 1050 nM | 955 nM | 592 nM | 86.2 nM
GAACGAGUGAUGUUCGUUAUUAUGCAUUCCGAGGAUAUGGGAUUAGCCAGAAGGCGGAAUCAAUCUUCGAGUGAUGUUCGAAGAU [Same State FMN A GF 11] | 129 nM | 138 nM | 142 nM | 119 nM | 136 nM
AAGUGUGUGGCGGCCGCCACUAGAAUCCAGUGAUGUUGGAGAUAUCUCGUAAGAGAUAUCCGCCAUAGGACCGGGCCAUAUAGAA [Same State - Tryptophan B (Freestyle 15)] | 981 nM | 720 nM | 1260 nM | 413 nM | 771 nM
GCGCGUCAUGUCAGCGGUGACACUGUCGAUACCAGUGCCGCAAGGCGCCCUUGGCAGCGACGUGCUGGAGUGAUGUUCCAGCGUU [#2 Exclusion - Theophylline A Attempt #29 (HarryS)] | 156 nM | 122 nM | 161 nM | 152 nM | 124 nM
GGUUCUCUGUUAGGAUAUAGAUUAGAGUGAUGUUCUAACGGCCCGGGCCCGAAAGGGCCCGGGCCGCUAGAAGGAACGGAGUUGG [#2 Same State - FMN A Attempt #1 (HarryS)] | 399 nM | 149 nM | 1100 nM | 538 nM | 444 nM
UACUAUAUUCUGUCGUUUAUAUUAUUUUGUCAGGAUAUCGUUUAUUCGAGAAGGGACACUAUCUAGUGAUGUUAGAUUUUUCUUU [JR_Nu_ExcFMNA_Sub029] | 55.8 nM | 130 nM | 86.7 nM | 108 nM | 67.7 nM
AAACAUCACUGGGAGUGAUGUUCUCAGUGACGAGGACCGGUACGGCCGCCACUCGCGAGAGAUAUAGUCAAGUAAUGACUGCAUU [Excl Tryptophan A V9] | 365 nM | 309 nM | 407 nM | 375 nM | 413 nM
AUAGGAGUGAUGUUCCUUAGUCUCUCCGAUACCAGUAUGGAAACAUACCCUUGGCAGCGGGAGACCGCAGAUUAGGAAACUAGUC [Theophylline A K4 5] | 178 nM | 179 nM | 185 nM | 205 nM | 172 nM
AGCAUUAUCAGAAGGAGCGUGUAUAAUUCAAGAGAAUUGUUUUCGAGUGAUGUUCGUAAUACACAGGUAGGUCGCUGAUAUAGCA [JR_ExcArginiB_Sub001] | 224 nM | 258 nM | 257 nM | 302 nM | 221 nM
CCCAAGGGCCUACCGGUAUGAUGGACGGAUACCAGAGGCGAAAGCCUCCCUUGGCAGCCGGGUGUAGUGAUGUUACUCCGGUAGU | 75.1 nM | 65.8 nM | 75 nM | 78.9 nM | 72 nM
UUAGAGAUCUCAGGAUAUCAGUGAUGUUGGUUUCCAGAUCUGAGAUAGAAUUCUAUCUCAGAUCAAUGAGAAGGGAGAUCUCAUU [AK4.1 Exc FMN B] | 535 nM | 128 nM | 151 nM | 132 nM | 123 nM
CCAUCGCUAUUCGAUACCAGUCAUAAAAUCUUUGGUUAAAUAAAGGAGUGAUGUUCCCAAGACCCUUGGCAGCGAAUAGUGAUGG [Theophylline B K4 7] | 229 nM | 227 nM | 217 nM | 266 nM | 213 nM
AUUUGUUUAUGUGAUACCAGACUAAGCAGUGAUGUUGCUUUUAUUUUUGAAUUUUAAAUAGUCCCUUGGCAGCACUAUGUAUUUA [JR_SSTheophyB_Sub010] | 60.6 nM | 93.1 nM | 70.2 nM | 99.2 nM | 60.3 nM
AGGGUAAGGCGUUAACAUGACACCUGGGAAGGAGCGCGGUACACCGCAGGUAGGUCGCCCAGUGAUGUUGGGUGUAAGUAUGAGU [KL-XArg-A23] | 137 nM | 109 nM | 135 nM | 146 nM | 115 nM
CGUUUAUAGCAGGAUACCAGUACCCAUAAAGUACGUUAAUAGUAGAGUGAUGUUCUAAAGUACCCUUGGCAGCUUCCCGUGACUG [ExTheophylB.U] | 65.3 nM | 116 nM | 79.5 nM | 99.8 nM | 52.9 nM
GGAUAGGACGGAGGAUAUGGUAGUGAUGUUACCAAACUGGUUAAACAUGUCAGAAAACUGGCAUGACCAGAAGGCCGUCCUAUCG [FmnBX 27 G10+C76] | 108 nM | 62.6 nM | 69.6 nM | 61.6 nM | 67.4 nM
CUCACGCUCACAGAUACCAGUGGUGAUCCGGAUUGUAGUGAUGUUAAUUCCGCCAUCAUACACCCUUGGCAGCUGGCGUCACCUU [theeternabot_sameState_KL_Theo_B_31] | 799 nM | 417 nM | 654 nM | 871 nM | 715 nM
GCGCGGCUCAGUGAUGUUGAGCCUCGGAGACGAGGACCGGUACGGCCGCCACUCGUCCGCGCAGCUGAGGCAAAAGCCUCGGCAA [Omei KL Tryp A SS B v3] | 201 nM | 195 nM | 189 nM | 186 nM | 141 nM
UAACUUGCAGUGAUGUUGCAAGAACUGGAUACCAGCAUGGAAACAUGCCCUUGGCAGCCAGAAGGUAUCCUACAUCACAGAUACU [Design2] | 220 nM | 202 nM | 214 nM | 226 nM | 197 nM
CCUUCUCUUGAUAGUGAUGUUAUCAAGGGCAAGGAUAUCAUCUCAAUGAGAAGGUGUCCUUGAUAACAUGGAGGUCUGAAACAGA [Omei KL FMN A Exc C v4] | 157 nM | 165 nM | 209 nM | 159 nM | 206 nM
